Legend:
[1] = biological target: T1, ParB (Spo0J) (Bacillus subtilis 168) (UniProt P26497); assay: EMSA; details: 50 mM Hepes-KOH pH 7.5, 100 mM KCl, 2.5 mM MgCl2, 0.1 mg/ml BSA, 1 mM DTT, 20 nM DNA, EMSA also 2.5% Ficoll, room temperature 30 min then ice 5 min, gel at 4 C
T1 sequence: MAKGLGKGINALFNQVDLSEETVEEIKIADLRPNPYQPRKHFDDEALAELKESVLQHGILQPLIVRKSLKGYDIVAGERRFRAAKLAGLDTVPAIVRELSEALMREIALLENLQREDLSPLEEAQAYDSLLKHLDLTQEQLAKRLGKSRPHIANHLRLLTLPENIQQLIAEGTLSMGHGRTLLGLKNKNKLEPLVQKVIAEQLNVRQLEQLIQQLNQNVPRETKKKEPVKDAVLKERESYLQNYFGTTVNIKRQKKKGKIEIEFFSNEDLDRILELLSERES

[2] = biological target: T1, ParB (Spo0J) (Bacillus subtilis 168); assay: fluorescence intensity (Cy3); details: 50 mM Hepes-KOH pH 7.5, 100 mM KCl, 2.5 mM MgCl2, 0.1 mg/ml BSA, 1 mM DTT, 20 nM DNA, EMSA also 2.5% Ficoll, room temperature 30 min then ice 5 min, gel at 4 C

147-bp parS
Kd ([1]; specific complex, TBM gel, 2.5 mM Mg2+): 0.1 µM

Cy3 147-bp parS
Kd [2]: 0.24 µM

Cy3 147-bp non-specific (scrambled parS)
Kd ([2]; apparent Kd of ParB2, Hill h = 3.4 ± 0.4, 2.5 mM Mg2+): 0.275 µM

TTTTGGAGATAGGATTCCCGTTCTTTTAGAACCGCATCTTTCACAGGTTCTTTTTTCTTTGTCTCCCTGGGCACGTTCTGATTCAACTGCTGAATCAGCTGCTCAAGTTGGCGAACATTGAGCTGCTCCGCAATCACTTTTTGTACC (double strand) [Cy3 147-bp non-specific (scrambled parS)]
Kd [2]: 0.275 µM

TTTTGGAGATAGGATTCCCGTTCTTTTAGAACCGCATCTTTCACAGGTTCTTTTTTCTTTGTTTCACGTGGAACATTCTGATTCAACTGCTGAATCAGCTGCTCAAGTTGGCGAACATTGAGCTGCTCCGCAATCACTTTTTGTACC (double strand) [Cy3 147-bp parS]
Kd [2]: 0.24 µM

GGTACAAAAAGTGATTGCGGAGCAGCTCAATGTTCGCCAACTTGAGCAGCTGATTCAGCAGTTGAATCAGAATGTTCCACGTGAAACAAAGAAAAAAGAACCTGTGAAAGATGCGGTTCTAAAAGAACGGGAATCCTATCTCCAAAA (double strand) [147-bp parS]
Kd [1]: 0.1 µM | binding [1]: binds

TTTTGGAGATAGGATTCCCGTTCTTTTAGAACCGCATCTTTCACAGGTTCTTTTTTCTTTGTCTCCCTGGGCACGTTCTGATTCAACTGCTGAATCAGCTGCTCAAGTTGGCGAACATTGAGCTGCTCCGCAATCACTTTTTGTACC (double strand) [147-bp non-specific (scrambled parS)]
binding [1]: binds
